According to publication PMC7774954 (PLoS ONE, 2020):
Where no end group is shown, it is not given here. The star is where a group is joined. Biotin = O=C1N[C@H]2[C@H](CS[C@H]2CCCCC(=O)*)N1; TTDS = NCCCOCCOCCOCCCNC(=O)CCC(=O)*

Experiments:
[1] = target: T1, MAGI2-2, second PDZ domain of MAGI2 (human, UniProt Q86UL8 426-510); experiment: fluorescence polarisation; direct: N-terminally fluorescein-labelled PBM peptide (tracer) with increasing amounts of MBP-PDZ; 384-well plates; triplicate; direct binding model (ProFit); details: both partners purified
T1 construct: not shown: His6, N-terminal, kept; MBP, N-terminal, kept
T1 sequence (Q86UL8 426-510): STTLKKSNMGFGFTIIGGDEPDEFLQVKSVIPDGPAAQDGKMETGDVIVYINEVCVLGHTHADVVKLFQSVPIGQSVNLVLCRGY

SYNJ2BP PDZ domain = target: T2, SYNJ2BP PDZ domain (human, UniProt P57105 13-100); experiment: as above; details: both partners purified
T2 sequence (looked up): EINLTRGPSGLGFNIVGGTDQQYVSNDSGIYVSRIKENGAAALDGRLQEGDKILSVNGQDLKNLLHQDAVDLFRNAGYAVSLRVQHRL

[2] = target: T3, NHERF3-1, first PDZ domain of NHERF3 (human, UniProt Q5T2W1 9-90); experiment: as above; details: both partners purified
T3 sequence (looked up): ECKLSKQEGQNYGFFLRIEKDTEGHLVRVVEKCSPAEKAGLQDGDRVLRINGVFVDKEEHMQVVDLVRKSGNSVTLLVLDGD

[3] = target: MAGI1-2, second PDZ domain of MAGI1 (human, UniProt Q96QZ7 472-554); experiment: as above; details: both partners purified
Chain of MAGI1-2, second PDZ domain of MAGI1 (Q96QZ7 472-554): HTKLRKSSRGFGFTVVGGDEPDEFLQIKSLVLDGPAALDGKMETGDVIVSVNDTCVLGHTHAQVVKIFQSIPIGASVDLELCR

[4] = target: T4, PDZRN3-1, first PDZ domain of PDZRN3 (human, UniProt Q9UPQ7 249-339); experiment: as above; details: both partners purified
T4 sequence (looked up): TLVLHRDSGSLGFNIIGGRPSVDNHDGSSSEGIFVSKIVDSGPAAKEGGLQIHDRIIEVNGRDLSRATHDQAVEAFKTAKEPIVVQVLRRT

[5] = target: T5, PDZRN4-1, first PDZ domain of PDZRN4 (human, UniProt Q6ZMN7 224-314); experiment: as above; details: both partners purified
T5 sequence (looked up): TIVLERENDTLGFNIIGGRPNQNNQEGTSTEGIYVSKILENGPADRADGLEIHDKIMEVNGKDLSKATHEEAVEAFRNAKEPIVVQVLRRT

[6] = target: DLG4-3, third PDZ domain of DLG4 (human, UniProt P78352 313-393); experiment: as above; details: both partners purified
Chain of DLG4-3, third PDZ domain of DLG4 (P78352 313-393): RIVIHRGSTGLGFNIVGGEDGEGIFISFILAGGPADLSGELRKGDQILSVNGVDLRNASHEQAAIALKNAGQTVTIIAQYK

[7] = target: T6, SCRIB-3, third PDZ domain of SCRIB (human, UniProt Q14160 1004-1093); experiment: as above; details: both partners purified
T6 sequence (looked up): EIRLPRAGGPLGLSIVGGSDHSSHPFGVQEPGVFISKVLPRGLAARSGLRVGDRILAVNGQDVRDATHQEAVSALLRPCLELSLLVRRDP

MAGI2-2 = target: T7, MAGI2-2 (human, UniProt Q86UL8 426-510); experiment: holdup assay; biotinylated PBM peptide saturating streptavidin resin (biotin resin as reference); tag-PDZ at 4 uM in crude E. coli lysate, 15 min, filtration, free tag-PDZ by capillary electrophoresis; singlicate; BI cut-off 0.20; BI converted into KD with the peptide concentration back-calculated from FP; details: one partner purified
T7 construct: PDZ domain number 2 of human MAGI2; also called MAGI2 PDZ dom 2; source: E. coli, in crude cell lysate; not shown: His, N-terminal, kept
T7 sequence (Q86UL8 426-510): as the sequence (Q86UL8 426-510) above

MAGI2-3 = target: T8, MAGI2-3 (human, UniProt Q86UL8 605-683); experiment: as above; details: one partner purified
T8 construct: PDZ domain number 3 of human MAGI2; also called MAGI2 PDZ dom 3; source: E. coli, in crude cell lysate; not shown: His, N-terminal, kept
T8 sequence (Q86UL8 605-683): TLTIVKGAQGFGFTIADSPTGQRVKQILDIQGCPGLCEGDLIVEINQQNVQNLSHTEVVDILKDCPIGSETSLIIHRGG

MAGI3-2 = target: T9, MAGI3-2 (human, UniProt Q5TCQ9 410-492); experiment: as above; details: one partner purified
T9 construct: PDZ domain number 2 of human MAGI3; also called MAGI3 PDZ dom 2; source: E. coli, in crude cell lysate; not shown: His, N-terminal, kept
T9 sequence (Q5TCQ9 410-492): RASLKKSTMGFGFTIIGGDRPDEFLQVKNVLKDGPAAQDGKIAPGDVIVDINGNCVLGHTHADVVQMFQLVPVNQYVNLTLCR

NHERF2-1 = target: T10, NHERF2-1 (human, UniProt Q15599 11-90); experiment: as above; details: one partner purified
T10 construct: PDZ domain number 1 of human NHERF2; also called NHERF2 PDZ dom 1; source: E. coli, in crude cell lysate; not shown: His, N-terminal, kept
T10 sequence (Q15599 11-90): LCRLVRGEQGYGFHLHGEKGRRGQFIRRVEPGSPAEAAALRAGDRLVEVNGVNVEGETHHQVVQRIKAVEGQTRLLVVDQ

NHERF2-2 = target: T11, NHERF2-2 (human, UniProt Q15599 150-230); experiment: as above; details: one partner purified
T11 construct: PDZ domain number 2 of human NHERF2; also called NHERF2 PDZ dom 2; source: E. coli, in crude cell lysate; not shown: His, N-terminal, kept
T11 sequence (Q15599 150-230): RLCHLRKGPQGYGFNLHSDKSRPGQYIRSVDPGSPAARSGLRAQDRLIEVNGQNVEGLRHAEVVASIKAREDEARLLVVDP

PARD3-3 = target: T12, PARD3-3 (human, UniProt Q8TEW0 590-677); experiment: as above; details: one partner purified
T12 construct: the text says PARD3-1; also called PARD3 PDZ dom 3; source: E. coli, in crude cell lysate; not shown: His, N-terminal, kept
T12 sequence (Q8TEW0 590-677): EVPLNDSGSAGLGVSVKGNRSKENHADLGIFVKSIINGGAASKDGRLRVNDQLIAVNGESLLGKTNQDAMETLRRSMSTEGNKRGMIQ

PTPN13-2 = target: T13, PTPN13-2 (human, UniProt Q12923 1368-1452); experiment: as above; details: one partner purified
T13 construct: PDZ domain number 2 of human PTPN13; also called PTPN13 PDZ dom 2; source: E. coli, in crude cell lysate; not shown: His, N-terminal, kept
T13 sequence (looked up): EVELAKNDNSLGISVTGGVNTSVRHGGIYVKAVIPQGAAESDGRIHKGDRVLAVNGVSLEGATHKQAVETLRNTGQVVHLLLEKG

PTPN13-4 = target: T14, PTPN13-4 (human, UniProt Q12923 1788-1868); experiment: as above; details: one partner purified
T14 construct: PDZ domain number 4 of human PTPN13; also called PTPN13 PDZ dom 4; fourth PDZ domain of PTPN13; source: E. coli, in crude cell lysate; not shown: His, N-terminal, kept
T14 sequence (looked up): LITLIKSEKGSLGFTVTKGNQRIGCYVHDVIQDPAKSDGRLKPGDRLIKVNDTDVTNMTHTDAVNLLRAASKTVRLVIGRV

DLG1-2 = target: T15, DLG1-2 (human, UniProt Q12959 319-405); experiment: as above; details: one partner purified
T15 construct: PDZ domain number 2 of human DLG1; also called DLG1 PDZ dom 2; source: E. coli, in crude cell lysate; not shown: His, N-terminal, kept

MAGI1-3 = target: T16, MAGI1-3 (human, UniProt Q96QZ7 643-721); experiment: as above; details: one partner purified
T16 construct: PDZ domain number 3 of human MAGI1; also called MAGI1 PDZ dom 3; source: E. coli, in crude cell lysate; not shown: His, N-terminal, kept
T16 sequence (Q96QZ7 643-721): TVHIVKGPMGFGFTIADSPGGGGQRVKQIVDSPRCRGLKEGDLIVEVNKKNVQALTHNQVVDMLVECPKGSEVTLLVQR

## fluorescein-RTRRETQL (source: synthetic peptide) [f16E6, fluorescein-labelled HPV16 E6 PBM peptide]
[1]
  Kd: 2.77 µM
SYNJ2BP PDZ domain
  Kd: 2.28 µM
[2]
  Kd: 2.34 µM
[3]
  Kd: 0.5 µM
[4]
  Kd: 1.08 µM
[5]
  Kd: 2.93 µM
[6]
  Kd: 7.27 µM
[7]
  Kd: 1.47 µM

B1: PTEN_13 (peptide, UniProt P60484 391-403, looked up)
peptide: {Biotin-TTDS}-PFDEDQHTQITKV
notes: also called 13-mer PTEN peptide; extended wild-type peptide; source: synthetic peptide, bought: JPT Innovative Peptide Solutions (70%-80% purity)
MAGI2-2
  Kd: 149 µM
MAGI2-3
  Kd: 30 µM
MAGI3-2
  Kd: 21 µM
NHERF2-1
  Kd: 134 µM
NHERF2-2
  Kd: 125 µM
PARD3-3
  Kd: 96 µM
PTPN13-2
  Kd: 16 µM
PTPN13-4
  Kd: 36 µM
DLG1-2
  Kd: 81 µM
MAGI1-3
  Kd: 10 µM
